Laboratory results from patent US20240131155A1, “T CELLS FOR USE IN THERAPY” (Erasmus University Medical Center Rotterdam, priority 2021, published 2024).
Peptide text beside a SMILES is read from it.

Columns and labels:
HLA-A2 = molecular target: T1, HLA-A2 (Homo sapiens, UniProt P04439, D140Y/D185E/D98H/E176V/E277Q/G131W/G231S/I119V/I121R/I166T/I218V/L300P/L318F/N151K/N90K/P208A/P217A/Q86G/Q94H/R138H/R169H/T345S); assay: HLA-A2 stabilization assay using T2 cells; format: binding; conditions: Table 4 (Examples 1 and 2); EC50 of peptide titration on T2 cells; read-out: Affinity for HLA.A2.01
T1 construct: The HLA-A2 stabilization assay was performed using T2 cells; endogenous in cells; host or cells: T2 cells (LCLxT lymphoblastoid hybrid cell line 0.1743CEM.T2)

CD8+ T cells [1] = assay: Enrichment of epitope-specific CD8 T cells from healthy donors, epitope-specific IFNg production (ELISA); format: cell-based, human; conditions: Table 4; positive co-cultures / co-cultures tested
Experimental: (§1) Enrichment of epitope-specific CD8 T cells was performed according to the protocol described by Butler et al., Clin Cancer Res.;13(6):1857-1867 (2007), doi:10.1158/1078-0432, but included the following amendments. CD8+ T lymphocytes were collected from PBMCs by magnetic-activated cell sorting (MACS) according to the CD8 isolation kit (Miltenyi Biotec). CD8+ T cells with >95% purity were subsequently cultured in T cell medium supplemented with IL-2 (36 IU/mL; but no gentamycin) for 1 day, after which expansion cycles started. K562ABC cells (kindly provided by prof. Bruce Levine, University of Pennsylvania, PA) were loaded with 10 μg/ml ROPN1 and/or ROPN1B peptide and incubated for 5 h at RT in serum-free medium, after which cells were washed and fixed with 0,1% paraformaldehyde. After washing, K562ABC cells were suspended at 0.1×10^6/mL and co-cultured with T cells in a 1:20 ratio. IL-2 (36 IU/mL) and IL-15 ([…]) were added at days 1 and 3 days after start of co-culture, and after 6 days, T cells were counted, suspended at 2×10^6/mL and rested for 1 day, after which the next cycle commenced (this schedule continued up to 4 or 5 cycles). Following 4 and 5 cycles, T cells were stained with pMHC multimers (HLA*0201/MLN, Immudex, Copenhagen, Denmark). pMHC-PE were pre-incubated at RT for 10 min followed by incubation with 7AAD, anti-CD3-FITC and anti-CD8-APC for 20 min. Cells were fixed with 1% paraformaldehyde and TCR expression was measured with flow cytometry and analyzed using FlowJoX software. FIG. 4A schematically depicts the procedure to enrich epitope-specific T cells, and obtainthe corresponding TCR genes.
Enriched T cells were tested for ROPN1 and/or ROPN1B epitope-specific IFNY production. To this end, T2 cells (4×10^6/mL) were loaded with peptide (20 ng/mL) for 30 min. T cells (2×10^5) were cultured in a 1:1 ratio with T2 cells in a round bottom 96-wells plate, and the next day supernatant was collected and IFN-γ production was measured with an Enzyme-linked immunosorbent assay (ELISA, Invitrogen) according to manufacturer's protocol (FIG. 4B). T2 cells without peptide were included as a negative control; and staphylococcal enterotoxin B (0.1 μg, Sigma) was used as a positive control.
Enrichment of epitope-specific T cells was performed by co-culturing naïve T cells with CD11c-positive cells that were loaded with peptide. PBMCs were passed through a cell strainer (70 μm) and used for the isolation of naïve T cells and CD11c cells. To isolate CD11c-positive cells (typically dendritic cells, DC), PBMCs were stained for 10 mM at 4° C. with Fc block (10 μL/10^7 PBMCs, BD Pharmingen, Vianen, the Netherlands), after which cells were stained with CD11c-PE antibody (10 μL/10^7 PBMCs, BD Pharmingen) for 30 mM at 4° C., washed, and incubated with PE beads (10 μL/10^7 PBMCs, Miltenyi Biotech, Bergisch Gladbach, Germany) for another […] at 4° C. After washing, cells were dissolved in magnetic-activated cell sorting (MACS) buffer and passed through a MACS LS column (Miltenyi Biotec) to positively select CD11c cells. After selection, CD11c cells were irradiated with 30 Gy, and cultured overnight in a 24-wells plate (1×10^6/mL) in RPMI medium supplemented with 1% human serum (Sanquin), 1% antibiotics, […] L-glutamine, a DC maturation cocktail (a mixture of GM-CSF (10 ng/mL, ImmunoTools, Germany), IL-4 (10 ng/mL, ImmunoTools), LPS (100 ng/mL, Invitrogen, Goteborg, Sweden) and IFNY (10 ng/mL, Preprotech, London, United Kingdom)), as well as peptide (10 pg/mL). Naïve T cells were isolated with use of the Naïve T Cell isolation kit (Miltenyi Biotec) according to the manufacturer's protocol, and suspended in RPMI medium supplemented with 5% human serum (Sanquin), 1% antibiotics, […] L-glutamine and IL-7 (5 ng/mL, BD Pharmingen). The run-through of the naïve T cell selection was frozen down and used for re-stimulation of epitope-specific T cells. […]

CD8+ T cells [2] = assay: peptide:MHC multimer/tetramer staining of enriched T cells (flow cytometry); format: cell-based, human; conditions: Table 4; enriched T cells after enrichment cycles
Experimental: as §1
Following enrichment, T cells were tested for ROPN1 and/or ROPN1B epitope-specific IFNY production. To this end, T2 cells (1×10^6/mL) were loaded with peptide (20 ng/mL) for 30 min, after which T cells (1×10^5) were cultured in a 1:1 ratio with T2 cells in a round bottom 96-wells plate for 18 h. Supernatant was collected and IFN-γ production was measured with an Enzyme-linked immunosorbent assay (ELISA, BioLegend) according to the manufacturer's protocol (FIG. 9A). T2 cells loaded with an irrelevant peptide were included as a negative control. T cell IFNg production was considered epitope-specific in case levels exceeded 200 pg/ml, and levels were minimally twice as high as for irrelevant peptide (see for full listing of criteria, FIG. 8). T cells that fulfilled these criteria were stained with peptide:MHC (pMHC) tetramers to determine the frequency of epitope-specific T cells. Empty Loadable HLA Tetramers (5 μL, Tetramer shop, Kongens Lyngby, Denmark) were incubated with 0.5 μL peptide (200 μM) for 30 min on ice. Complexes of pMHC were centrifuged (3300 g, 5 min) and incubated with 0.1×10^6 T cells for 15 min at 37° C. in the dark. Next, an antibody cocktail containing CD3-FITC (1:30, BD) and CD8-APC (1:300, eBiosciences) was added and incubated for an additional 30 min at 4° C. in the dark. Finally, T cells were washed twice and fixed with 1% paraformaldehyde (PFA), after which events were acquired with FACSCelesta (BD) and analyzed using FlowJoX software.

[3] = system: ROPN1 or ROPN1B over-expressing MDA-MB231 tumor cells; assay: IFNg production of TCR T cells co-cultured with ROPN1 or ROPN1B over-expressing tumor cells (endogenously processed epitope); format: cell-based, human; conditions: Table 4; responding TCRs / TCRs tested, T cells transduced with TCR specific for the epitope
Experimental: In a first series of in vitro tests, TCR-transduced T cells (6×10^4/well in a 96-well plate) were co-cultured with ROPN1 or ROPN1B over-expressing MDA-MB231 tumor cells (2×10^4/well) in a total volume of 200 μl of T cell medium for 24 h at 37° C. The ROPN1 or ROPN1B over-expressing tumor cells were generated as described under ‘generation and culture of cell lines and T cells’ (see above), and tumor cells were pre-treated 48 h with IFN-Y before co-culture with T cells. […] T cells that fulfilled these criteria (examples in FIG. 10A) were assessed for their sensitivity towards their cognate epitope. […] EC50 values were calculated using GraphPad Prism 5 software.

[4] = molecular target: T2, HLA-A2 (HLA-A2:01) on T2 cells (human); assay: HLA-A2 stabilization assay on T2 cells (anti-HLA-A2-PE, flow cytometry), single peptide concentration [panel D]
T2 construct: detected with anti-HLA-A2 mAb BB7.2

[5] = molecular target: T2, HLA-A2 (HLA-A2:01) on T2 cells; assay: HLA-A2 stabilization assay on T2 cells (anti-HLA-A2-PE, flow cytometry), single peptide concentration 25 ug/mL [panel E]
[6] = molecular target: T2, HLA-A2 (HLA-A2:01) on T2 cells; assay: HLA-A2 stabilization assay on T2 cells (anti-HLA-A2-PE, flow cytometry), single peptide concentration [panel B; D00018 Figure 7 continued, panel D]
[7] = molecular target: T2, HLA-A2 (HLA-A2:01) on T2 cells; assay: HLA-A2 stabilization assay on T2 cells, peptide titration (Example 2, repeated); column Affinity for HLA.A2.01 (M)
[8] = molecular target: T2, HLA-A2 (HLA-A2:01) on T2 cells; assay: HLA-A2 stabilization assay on T2 cells, peptide titration, flow cytometry with anti-HLA-A2 BB7.2; column Affinity for HLA A2:01 (M)
[9] = molecular target: T2, HLA-A2 (HLA-A2:01) on T2 cells; assay: HLA-A2 stabilization assay on T2 cells, peptide titration; amplitude relative to that of reference peptide YLE [panel D]
[10] = molecular target: T2, HLA-A2 (HLA-A2:01) on T2 cells; assay: HLA-A2 stabilization assay on T2 cells, peptide titration; amplitude = highest data point corrected for baseline [panel E]
[11] = molecular target: T2, HLA-A2 (HLA-A2:01) on T2 cells; assay: HLA-A2 stabilization assay on T2 cells, peptide titration (Example 2); column Affinity for HLA.A2.01 (M)
[12] = molecular target: T2, HLA-A2 (HLA-A2:01) on T2 cells; assay: HLA-A2 stabilization assay on T2 cells, peptide titration; EC50 calculated with GraphPad [panel D]

Molecule | Minimum stability [4] [fold change over baseline] | Minimum stability [5] [fold change over baseline] | EC50 [7] [µM] | EC50 [8] [µM] | Amplitude [9] | Amplitude [10] | further results
CC[C@H](C)[C@H](NC(=O)[C@H](CC(C)C)NC(=O)CNC(=O)[C@H](CC(=O)O)NC(=O)[C@@H]1CCCN1C(=O)CNC(=O)[C@@H](NC(=O)[C@@H](NC(=O)[C@@H](N)CCC(=O)O)C(C)C)[C@@H](C)CC)C(=O)N[C@H](C(=O)N[C@H](C(=O)O)C(C)C)[C@@H](C)O (H-EVIGPDGLITV-OH; N-terminus and C-terminus assumed) | – | – | – | – | – | – | EC50 (HLA-A2): 0.655 µM; T cell responses observed (IFNg) against epitope (CD8+ T cells [1]): 2/2 co-cultures; pMHC staining % pMHC+ CD8+ in CD3+ (CD8+ T cells [2]): 8.25%; T cell responses observed (IFNg) against endogenously presented epitope [3]: 1/7 responses
AELTPELLKI (Eluted from ROPN1B-overexpressing MDA-MB231 cells; mapped in silico to HLA-B40:01) [Epitope 16 peptide AELTPELLKI (10-mer derived from immunopeptidome)] | 1.08 | 1.17 | – | – | – | – | binding result [6]: no binding
KTLKIVCEV (Synthetic peptide) [Epitope 3 peptide KTLKIVCEV of ROPN1 and ROPN1B] | 1.26 | 1.18 | 4.4 | 4.35 | 0.844 relative to YLE | 2620 geometric mean normalized to baseline | –
FQFLYTYIA (Synthetic peptide) [Epitope 6 peptide FQFLYTYIA of ROPN1 and ROPN1B] | 1.14 | 1.32 | 3.43 | 3.28 | 0.739 relative to YLE | 2380 geometric mean normalized to baseline | –
ALACSALGV (Synthetic peptide) [Epitope 7 peptide ALACSALGV of ROPN1 and ROPN1B] | 1.26 | 1.37 | 2.84 | 3.16 | 0.852 relative to YLE | 2180 geometric mean normalized to baseline | –
FLYTYIAKV (Synthetic peptide) [Epitope 4 (FLY-A) peptide FLYTYIAKV of ROPN1] | 1.63 | 1.5 | 8.11 | 10.9 | 0.888 relative to YLE | 2710 geometric mean normalized to baseline | –
FLYTYIAEV (Synthetic peptide) [Epitope 10 (FLY-B) peptide FLYTYIAEV of ROPN1B] | 1.42 | – | – | – | 0.593 relative to YLE | – | EC50 [11]: 21.1 µM
AQMWKVVNL (Synthetic peptide) [Epitope 8 peptide AQMWKVVNL of ROPN1 and ROPN1B] | 1.4 | 1.29 | 10.5 | 11.4 | 0.924 relative to YLE | 3480 geometric mean normalized to baseline | –
KMLKEFAKA (Synthetic peptide) [Epitope 9 peptide KMLKEFAKA of ROPN1 and ROPN1B] | 1.2 | 1.19 | 38.2 | 91.2 | 0.842 relative to YLE | 2660 geometric mean normalized to baseline | –
EVIGPDGLITV (Synthetic peptide) [Epitope 11 (EVI) peptide EVIGPDGLITV of ROPN1B] | 1.57 | – | – | – | 1.12 relative to YLE | – | EC50 [11]: 0.655 µM
LPRIPFSTF (ROPN1B, eluted) | 1.14 | – | – | – | 0.38 relative to YLE | – | EC50 [12]: 0.0664 µM
GVTITKTLK (ROPN1A and ROPN1B, eluted) | 1.18 | – | – | – | 0.489 relative to YLE | – | EC50 [12]: 0.57 µM
SALGVTITK (ROPN1A and ROPN1B, eluted) | 0.92 | – | – | – | – | – | binding result [6]: no binding
